Experimental data from PMC8346855.

Columns and labels:
[1] = biological target: thermostabilized turkey beta-1 adrenergic receptor (turkey) (UniProt P07700); experiment: cross-linking; Kd by titrating the partner protein against isoprenaline-bound β1AR; 20 mM Hepes pH 7.5, 40 mM NaCl, 0.01% lauryl maltose neopentyl glycol; BS(PEG)9, high-mass MALDI-MS, normalised to β-galactosidase
[2] = biological target: thermostabilized turkey beta-1 adrenergic receptor (turkey) (UniProt P07700); experiment: cross-linking; Kd by titrating the G protein against the apo GPCR; 20 mM Hepes pH 7.5, 40 mM NaCl, 0.01% lauryl maltose neopentyl glycol; BS(PEG)9, high-mass MALDI-MS, normalised to β-galactosidase
[3] = biological target: angiotensin II-bound F117W mutant of mouse angiotensin II type 1 receptor (mouse | not stated) (UniProt P29754); experiment: cross-linking; Kd by titrating the G protein against ligand-bound AT1R; 20 mM Hepes pH 7.5, 40 mM NaCl, 0.01% lauryl maltose neopentyl glycol; BS(PEG)9, high-mass MALDI-MS, normalised to β-galactosidase
[4] = biological target: thermostabilized turkey beta-1 adrenergic receptor (turkey) (UniProt P07700); experiment: cross-linking; isoprenaline-bound β1AR with Gαi or β-arrestin-1 at equimolar concentration; BS(PEG)9, high-mass MALDI-MS; percent complex by normalisation with β-Gal
[5] = biological target: thermostabilized turkey beta-1 adrenergic receptor (turkey) (UniProt P07700); experiment: cross-linking; carvedilol-bound β1AR with Gαi or β-arrestin-1 at equimolar concentration; BS(PEG)9, high-mass MALDI-MS; percent complex by normalisation with β-Gal
[6] = biological target: thermostabilized turkey beta-1 adrenergic receptor (turkey) (UniProt P07700); experiment: cross-linking; apo β1AR with Gαi or β-arrestin-1 at equimolar concentration; BS(PEG)9, high-mass MALDI-MS; percent complex by normalisation with β-Gal
[7] = biological target: thermostabilized turkey beta-1 adrenergic receptor (turkey) (UniProt P07700); experiment: cross-linking; β1AR and partner with 1 or 25 µM s32212 at increasing concentrations of isoprenaline; BS(PEG)9, high-mass MALDI-MS
[8] = biological target: mouse angiotensin II type 1 receptor F117W Δ324 with a C-terminal 1D4 tag (mouse); experiment: cross-linking + other: high-mass MALDI-MS; ligand-free (apo) GPCR, 5 µM, mixed with partner protein at various concentrations, 1 h at room temperature, BS(PEG)9 cross-linking, β-Gal as internal standard; 20 mM Hepes pH 7.5, 40 mM NaCl, 0.01% LMNG; Ka = 1/Kd
[9] = biological target: angiotensin II-bound mouse angiotensin II type 1 receptor F117W Δ324 (mouse | human); experiment: cross-linking + other: high-mass MALDI-MS; angiotensin II-bound AT1R (angII-AT1R), 5 µM, mixed with partner protein at various concentrations, 1 h at room temperature, BS(PEG)9 cross-linking, 1.0 µM β-Gal as internal standard; 20 mM Hepes pH 7.5, 40 mM NaCl, 0.01% LMNG; Ka = 1/Kd

full-length wild-type β-arrestin-1, sequence (P49407 whole entry): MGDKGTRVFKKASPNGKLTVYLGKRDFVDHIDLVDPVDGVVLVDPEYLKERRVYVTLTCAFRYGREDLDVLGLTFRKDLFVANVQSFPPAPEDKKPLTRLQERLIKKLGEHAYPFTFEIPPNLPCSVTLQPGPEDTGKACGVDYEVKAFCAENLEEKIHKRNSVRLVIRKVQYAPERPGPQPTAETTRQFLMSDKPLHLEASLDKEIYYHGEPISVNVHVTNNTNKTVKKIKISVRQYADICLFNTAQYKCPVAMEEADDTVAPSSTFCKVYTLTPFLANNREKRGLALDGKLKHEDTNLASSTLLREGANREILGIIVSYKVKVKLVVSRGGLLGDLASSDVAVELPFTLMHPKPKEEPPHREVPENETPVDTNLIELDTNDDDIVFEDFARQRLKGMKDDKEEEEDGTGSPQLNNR
thermostabilized turkey beta-1 adrenergic receptor (turkey), sequence (P07700 whole entry): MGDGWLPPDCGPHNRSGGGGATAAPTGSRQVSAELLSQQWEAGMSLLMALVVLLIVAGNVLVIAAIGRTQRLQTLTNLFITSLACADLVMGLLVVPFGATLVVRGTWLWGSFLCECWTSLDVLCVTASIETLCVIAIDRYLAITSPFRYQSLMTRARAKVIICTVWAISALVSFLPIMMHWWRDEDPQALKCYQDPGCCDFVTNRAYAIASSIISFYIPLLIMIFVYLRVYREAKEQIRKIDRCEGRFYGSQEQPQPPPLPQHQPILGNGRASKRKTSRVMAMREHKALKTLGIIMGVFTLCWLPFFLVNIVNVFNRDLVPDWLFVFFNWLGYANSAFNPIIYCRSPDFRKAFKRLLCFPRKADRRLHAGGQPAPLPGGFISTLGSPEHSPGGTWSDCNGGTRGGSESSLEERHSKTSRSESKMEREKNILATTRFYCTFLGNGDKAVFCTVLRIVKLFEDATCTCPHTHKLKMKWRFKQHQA

For “mini-Gα protein mGi (domain or fragment)”, the Kd [1] was 1620 nM.
In the case of “mini-Gα protein mGo (domain or fragment)”, the Kd [1] is reported as 250 nM, the Kd [2] is reported as 250 nM and the binding strength relative to mGq [3] is reported as 2 fold.
Work on “full-length wild-type β-arrestin-1 (from UniProt P49407 1-418) (natural protein)” yielded a complex formation [4] of 32%, a complex formation [5] of 88% and a complex formation [6] of 32%.
“mini-Gα protein mGs (from UniProt P63092 87-394) (domain or fragment)” was tested, and the Kd [1] was 350 nM and the complex formation recovered by raising isoprenaline (with s32212) [7] was 80%.
“mini-Gα protein mGq (domain or fragment)” showed a Kd [1] of 1240 nM.
In the case of “mGo truncated by its last five residues (domain or fragment)”, the Kd [1] is reported as 230 nM and the Kd [2] is reported as 280 nM.
Work on mini-Go (domain or fragment) yielded a Ka [8] of 270000 M⁻¹ and a Ka [9] of 1.02e+06 M⁻¹.
“full-length wild-type Gαi (from UniProt P63096 1-354) (natural protein)” was tested, and the complex formation [4] was 60%, the complex formation [5] was 92% and the complex formation [6] was 60%.
